Measured values reported in US5856155, “Compounds and related methods for modulating potassium ion channels and assays for such compounds” (The Johns Hopkins University School Of Medicine, dated 1999).

T1: NH2-terminal domain of Drosophila Shal2 (Kv4 subfamily) (Drosophila, UniProt P17971-1)
T1 sequence: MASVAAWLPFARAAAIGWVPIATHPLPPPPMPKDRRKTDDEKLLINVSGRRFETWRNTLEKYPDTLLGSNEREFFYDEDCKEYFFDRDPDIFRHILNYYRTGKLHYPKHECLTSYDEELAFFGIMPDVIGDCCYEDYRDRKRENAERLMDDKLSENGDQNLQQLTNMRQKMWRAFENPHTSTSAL

T2: NH2-terminal domain of NGK2b (a.a. 1-180) (Kv3.1) (rat, UniProt P25122)
T2 sequence: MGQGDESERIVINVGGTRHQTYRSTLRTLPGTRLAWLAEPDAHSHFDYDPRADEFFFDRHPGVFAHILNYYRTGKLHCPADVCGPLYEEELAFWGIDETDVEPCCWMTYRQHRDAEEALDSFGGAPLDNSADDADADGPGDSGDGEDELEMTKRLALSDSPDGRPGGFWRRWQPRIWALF

T3: NH2-terminal domain of Drosophila Shaw2 (Kv3 subfamily) (Drosophila, UniProt P17972)
T3 sequence: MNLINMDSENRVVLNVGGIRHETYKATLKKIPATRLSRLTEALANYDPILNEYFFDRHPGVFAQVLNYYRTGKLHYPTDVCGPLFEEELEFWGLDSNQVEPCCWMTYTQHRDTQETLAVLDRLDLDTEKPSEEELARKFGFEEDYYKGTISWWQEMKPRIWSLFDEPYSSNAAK

T4: NH2-terminal domain of DRK1 (a.a. 1-182) (Kv2.1) (rat, UniProt P15387)
T4 sequence: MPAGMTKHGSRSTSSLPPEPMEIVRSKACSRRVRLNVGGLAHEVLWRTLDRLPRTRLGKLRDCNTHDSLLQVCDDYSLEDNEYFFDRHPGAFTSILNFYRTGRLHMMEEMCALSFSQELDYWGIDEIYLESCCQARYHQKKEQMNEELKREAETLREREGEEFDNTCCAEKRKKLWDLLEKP

T5: NH2-terminal domain of rshal1 (a.a. 1-228) (Kv4.2) (rat, UniProt Q63881)
T5 sequence: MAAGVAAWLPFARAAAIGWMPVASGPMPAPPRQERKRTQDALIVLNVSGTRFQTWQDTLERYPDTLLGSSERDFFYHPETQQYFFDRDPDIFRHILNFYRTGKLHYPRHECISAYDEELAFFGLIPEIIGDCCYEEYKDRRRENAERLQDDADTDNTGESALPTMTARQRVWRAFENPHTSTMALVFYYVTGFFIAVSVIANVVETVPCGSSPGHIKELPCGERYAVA

B1: ΔKvβ2(39-316) (other)
chain: YRNLGKSGLRVSCLGLGTWVTFGGQITDEMAEHLMTLAYDNGINLFDTAEVYAAGKAEVVLGNIIKKKGWRRSSLVITTKIFWGGKAETERGLSRKHIIEGLKASLERLQLEYVDVVFANRPDPNTPMEEIVRAMTHVINQGMAMYWGTSRWSSMEIMEAYSVARQFNLIPPICEQAEYHMFQREKVEVQLPELFHKIGVGAMTWSPLACGIVSGKYDSGIPPYSRASLKGYQWLKDKILSEEGRRQQAKLKELQAIAERLGCTLPQLAIAWCLRNEG
B2: ΔKvβ2(39-367) (other)
chain: YRNLGKSGLRVSCLGLGTWVTFGGQITDEMAEHLMTLAYDNGINLFDTAEVYAAGKAEVVLGNIIKKKGWRRSSLVITTKIFWGGKAETERGLSRKHIIEGLKASLERLQLEYVDVVFANRPDPNTPMEEIVRAMTHVINQGMAMYWGTSRWSSMEIMEAYSVARQFNLIPPICEQAEYHMFQREKVEVQLPELFHKIGVGAMTWSPLACGIVSGKYDSGIPPYSRASLKGYQWLKDKILSEEGRRQQAKLKELQAIAERLGCTLPQLAIAWCLRNEGVSSVLLGASNAEQLMENIGAIQVLPKLSSSIVHEIDSILGNKPYSKKDYRS
B3: Kvβ2 (a.a. 1-367) (other)
chain: MYPESTTGSPARLSLRQTGSPGMIYSTRYGSPKRQLQFYRNLGKSGLRVSCLGLGTWVTFGGQITDEMAEHLMTLAYDNGINLFDTAEVYAAGKAEVVLGNIIKKKGWRRSSLVITTKIFWGGKAETERGLSRKHIIEGLKASLERLQLEYVDVVFANRPDPNTPMEEIVRAMTHVINQGMAMYWGTSRWSSMEIMEAYSVARQFNLIPPICEQAEYHMFQREKVEVQLPELFHKIGVGAMTWSPLACGIVSGKYDSGIPPYSRASLKGYQWLKDKILSEEGRRQQAKLKELQAIAERLGCTLPQLAIAWCLRNEGVSSVLLGASNAEQLMENIGAIQVLPKLSSSIVHEIDSILGNKPYSKKDYRS
B4: Kvβ1 (a.a. 1-401) (other)
chain: MQVSIACTEHNLKSRNGEDRLLSKQSSTAPNVVNAARAKFRTVAIIARSLGTFTPQHHISLKESTAKQTGMKYRNLGKSGLRVSCLGLGTWVTFGGQISDEVAERLMTIAYESGVNLFDTAEVYAAGKAEVILGSIIKKKGWRRSSLVITTKLYWGGKAETERGLSRKHIIEGLKGSLQRLQLEYVDVVFANRPDSNTPMEEIVRAMTHVINQGMAMYWGTSRWSAMEIMEAYSVARQFNMIPPVCEQAEYHLFQREKVEVQLPELYHKIGVGAMTWSPLACGIISGKYGNGVPESSRASLKCYQWLKERIVSEEGRKQQNKLKDLSPIAERLGCTLPQLAVAWCLRNEGVSSVLLGSSTPEQLIENLGAIQVLPKMTSHVVNEIDNILRNKPYSKKDYRS

Legend:
Kvβ1 (a.a. 1-401) = molecular target: B4; assay: cell-based or functional assay
ShBΔ(6-46) = ShBΔ(6-46) (Drosophila, UniProt P08510); assay: cell-based or functional assay
[1] = molecular target: T6, COOH-terminal domain of RCK4 (CRCK4, a.a. 566-651) (rat, UniProt P15385); assay: yeast two-hybrid, growth on medium lacking histidine; similar results with a β-galactosidase assay
Source text: (§1) FIG. 6A depicts the results of a yeast two-hybrid assay wherein YGH1 yeast cells were transformed by different pairwise combinations of the two-hybrid constructs that express either fusion proteins of the DNA binding domain of GAL4 or the transcription activation domain of GAL4. […] In the middle panel, the transformants carrying the two different fusion proteins were first selected by dextrose synthetic drop-out medium with no supplement of leucine and tryptophan (SD, −leu, −trp, +his) to ensure that in different combinations the transformants have both plasmids. In the lower panel, identical numbers of cells in each combination were also dotted on the same medium without histidine (SD, −leu, −trp, −his). The transformants were allowed to grow at 30° C. for 65 hours.
To begin the test, the NH_2-terminal domain and COOH-terminal domain of Kv1.4 (RCK4) were subcloned. These truncated cytoplasmic fragments, i.e., the NH_2-terminal domain (a.a. 1–306) and COOH-terminal domain (a.a. 566–651), were expressed individually with Kvβ2 as GAL4 fusion proteins. […]
Similar results were obtained using a β-galactosidase assay (data not shown). Thus, like Kvβ1, Kvβ2 was determined to interact with the NH_2-terminal domain of the Kv1.4 α-subunit.

[2] = molecular target: T1, NH2-terminal domain of Drosophila Shal2 …; assay: yeast two-hybrid, growth on medium lacking histidine
Source text: as §1, with “6B” for “6A”
(§2) In the case of Kvβ1, its subfamily-specific association with the NH_2-terminal domains of Kv1 α-subunits is essential for the Kvβ1-mediated inactivation. […] What is not known, however, is whether the failure to detect the Kv2.1-Kvβ2 complex is due to the incompatibility of these two subunits to interact or their limited overlapping expression in vivo. To test the specificity of the Kvβ2-α (interaction, pairwise combinations of Kvβ2 and the NH_2-terminal domains of eight different α-subunits were analyzed in the yeast two hybrid system. The eight α-subunits included were: ShB (Kamb et al., *Cell*, 50, 405–413 (1987); Pongs et al., *EMBO J.*, 7, (1988); Tempel et al., *Science*, 237, 770–775, (1987), Shabll, Shaw2, and Shal2 from Drosophila (Butler et al., *Nucleic Acids Res.*, 18, 2173–2174 (1990); Kv1.4 (or RCK4) (Stuhmer et al., *EMBO J.*, 8, 3235–3244 (1989), Kv2.1 (or DPK1) (Frech et al., *Nature*, 340, 642–645 (1989), Kv3.1 (or NGK2b) (Yokoyama et al., *FEBS Lett.*, 259, 37–42 (1989), and Kv4.2(or rShal1) (Baldwin et al., *Neuron*, 7, 471–483 (1991); Roberds et al., *Proc. Natl. Acad. Sci. USA*, 88, 1798–1802 (1991)) from rat.

[3] = molecular target: T2, NH2-terminal domain of NGK2b (a.a. …); assay: as above
Source text: as §1, with “6B” for “6A”
as §2

[4] = molecular target: T3, NH2-terminal domain of Drosophila Shaw2 …; assay: as above
Source text: as §1, with “6B” for “6A”
as §2

[5] = molecular target: T4, NH2-terminal domain of DRK1 (a.a. …); assay: as above
Source text: as §1, with “6B” for “6A”
as §2

[6] = molecular target: T5, NH2-terminal domain of rshal1 (a.a. …); assay: as above
Source text: as §1, with “6B” for “6A”
as §2

[7] = molecular target: T7, GAL4 transcription activation (TA) domain alone (Saccharomyces cerevisiae (strain ATCC …, UniProt P04386)); assay: yeast two-hybrid control (FIG. 6A, No. 1), growth on medium lacking histidine
Source text: as §1
To begin the test, the NH_2-terminal domain and COOH-terminal domain of Kv1.4 (RCK4) were subcloned. These truncated cytoplasmic fragments, i.e., the NH_2-terminal domain (a.a. 1–306) and COOH-terminal domain (a.a. 566–651), were expressed individually with Kvβ2 as GAL4 fusion proteins. Using this methodology, if Kvβ2 were to interact with one or both truncated Kv1.4 fragments, the resultant interaction(s) would confer the ability upon the yeast transformants to grow on synthetic medium lacking histidine. Table 2 below defines the conditions of the yeast two-hybrid system in FIG. 6A.

[8] = molecular target: T6, COOH-terminal domain of RCK4 (CRCK4, …); assay: yeast two-hybrid, growth on medium lacking histidine
Source text: as §1, with “6B” for “6A”
as §2

[9] = molecular target: T7, GAL4 transcription activation (TA) …; assay: yeast two-hybrid control, growth on medium lacking histidine
Source text: (§3) Figure 2: FIG. 2 depicts the results of a yeast two-hybrid assay wherein YGH1 yeast cells were transformed by different pairwise combinations of the two-hybrid constructs that express either fusion proteins of the DNA binding domain of GAL4 or the transcription activation domain of GAL4. […] In the middle panel, the transformants carrying the two different fusion proteins were first selected by dextrose synthetic drop-out medium with no supplement of leucine and tryptophan (SD, −leu, −trp, +his) to ensure that in different combinations the transformants have both plasmids. In the lower panel, the identical number of cells in each combination were also dotted on the same medium without histidine (SD, −leu, −trp, −his). The transformants were allowed to grow at 30° C. for 65 hours.
(§4) Cytoplasmic NH_2— and COOH— terminal domains of different α-subunits were subcloned and expressed as fusion proteins of the GAL4 DNA binding (DB) domain. Kvβ1 was expressed as a fusion protein of either the GAL4 DNA binding (DB) domain or transcription activation (TA) domain. […] When Kvβ1 was coexpressed with the NH_2-terminal domain of RCK4 (NRCK4) (a.a. 1–306; an α-subunit sensitive to Kvβ1-mediated inactivation), the yeast transformants grew on a selective medium (FIG. 2, No. 1).

[10] = molecular target: GAL4 DNA binding (DB) domain alone (Saccharomyces cerevisiae (strain ATCC …, UniProt P04386)); assay: as above
Source text: as §3, §4

Row | Binder | percent of recorded cells with fast inactivation, whole cell voltage clamp recording of transfected COS cells (Kvβ1 (a.a. 1-401)) | percent of recorded cells with fast inactivation, whole cell voltage clamp recording of transfected COS cells (ShBΔ(6-46)) | binding result [1] | binding result [2] | binding result [3] | binding result [4] | binding result [5] | binding result [6] | binding result [7] | binding result [8] | binding result [9] | binding result [10]
1 | B1 | 61 % of cells | 61 % of cells | – | – | – | – | – | – | – | – | – | –
2 | B2 | 22.5 % of cells | 22.5 % of cells | – | – | – | – | – | – | – | – | – | –
3 | B3 | – | – | no binding | no binding | no binding | no binding | no binding | no binding | no binding | – | – | –
4 | B4 | – | – | – | – | no binding | – | no binding | no binding | – | no binding | no binding | no binding
